Measured values taken from patent US5695964.

Tests used:
DIP-thrombin agarose = assay: chromatography on DIP-thrombin agarose
bovine thrombin (bovine) [1] = target: bovine thrombin (bovine) (UniProt P00735)
bovine thrombin (bovine) [2] = target: bovine thrombin (bovine) (UniProt P00735); details: scale: relative activity
human fibrinogen (human) = human fibrinogen (human) (UniProt P02671)

Chain of recombinant human urine thrombomodulin ruTM-Ala (receptor) (chain): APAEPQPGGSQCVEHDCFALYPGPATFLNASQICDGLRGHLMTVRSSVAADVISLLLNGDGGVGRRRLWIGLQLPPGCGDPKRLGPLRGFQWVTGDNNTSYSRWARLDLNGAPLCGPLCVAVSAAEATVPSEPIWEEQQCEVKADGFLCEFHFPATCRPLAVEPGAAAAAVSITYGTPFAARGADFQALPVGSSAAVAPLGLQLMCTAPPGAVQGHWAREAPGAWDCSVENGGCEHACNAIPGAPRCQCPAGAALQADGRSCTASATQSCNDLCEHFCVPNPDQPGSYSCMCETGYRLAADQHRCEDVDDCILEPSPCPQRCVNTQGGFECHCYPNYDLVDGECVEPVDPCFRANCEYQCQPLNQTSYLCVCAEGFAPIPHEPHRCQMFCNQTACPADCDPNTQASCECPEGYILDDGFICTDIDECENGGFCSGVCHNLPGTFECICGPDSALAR
Chain of pKCR-TM-Val-originated recombinant human urine thrombomodulin (receptor) (chain): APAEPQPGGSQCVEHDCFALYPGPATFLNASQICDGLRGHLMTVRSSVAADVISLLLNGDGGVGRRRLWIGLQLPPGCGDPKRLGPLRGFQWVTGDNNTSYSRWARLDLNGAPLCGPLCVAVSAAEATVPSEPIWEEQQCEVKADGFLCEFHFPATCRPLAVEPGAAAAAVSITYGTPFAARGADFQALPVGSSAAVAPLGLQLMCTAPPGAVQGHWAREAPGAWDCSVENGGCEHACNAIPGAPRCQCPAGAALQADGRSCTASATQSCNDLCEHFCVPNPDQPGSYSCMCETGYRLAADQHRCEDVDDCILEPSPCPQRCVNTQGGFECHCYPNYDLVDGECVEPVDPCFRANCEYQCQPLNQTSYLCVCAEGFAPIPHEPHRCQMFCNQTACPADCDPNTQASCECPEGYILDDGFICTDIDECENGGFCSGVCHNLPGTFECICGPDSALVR
Chain of mutation type recombinant human urine thrombomodulin in which 10 amino acid residues are deleted from the C-terminus of the human urine thrombomodulin (receptor) (chain): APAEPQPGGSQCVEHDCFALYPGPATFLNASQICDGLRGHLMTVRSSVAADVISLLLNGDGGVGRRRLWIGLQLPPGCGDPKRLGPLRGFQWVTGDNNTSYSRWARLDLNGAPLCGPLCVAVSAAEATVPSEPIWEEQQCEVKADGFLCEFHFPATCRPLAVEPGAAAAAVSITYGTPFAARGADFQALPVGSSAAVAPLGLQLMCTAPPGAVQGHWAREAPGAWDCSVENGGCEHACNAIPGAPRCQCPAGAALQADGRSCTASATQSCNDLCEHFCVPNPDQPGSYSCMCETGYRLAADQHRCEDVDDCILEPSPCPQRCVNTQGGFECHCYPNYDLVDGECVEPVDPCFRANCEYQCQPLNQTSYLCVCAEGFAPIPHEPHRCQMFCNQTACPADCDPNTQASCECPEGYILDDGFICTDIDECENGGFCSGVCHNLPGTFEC

adsorbed by thrombin (DIP-thrombin agarose) [%]	Coagulation time (bovine thrombin (bovine) [1]) [s]	Protein C activating ability (relative activity) (bovine thrombin (bovine) [2])	Coagulation time (human fibrinogen (human)) [s]	Substance
–	–	1	–	human placenta thrombomodulin (from UniProt P07204) (receptor)
–	–	–	37.8	bovine thrombin (from UniProt P00735) (enzyme)

Second part, the substance before the results:

Substance	adsorbed by thrombin (DIP-thrombin agarose) [%]	Coagulation time (bovine thrombin (bovine) [1]) [s]	Protein C activating ability (relative activity) (bovine thrombin (bovine) [2])	Coagulation time (human fibrinogen (human)) [s]
pKCR-TM-Val-originated recombinant human urine thrombomodulin (receptor)	100	> 500	–	–
mutation type recombinant human urine thrombomodulin in which 10 amino acid residues are deleted from the C-terminus of the human urine thrombomodulin (receptor)	–	–	4.1	–
recombinant human urine thrombomodulin ruTM-Ala (receptor)	100	> 500	3.8	–
